Data set [1] in a line: LogD7.4 determination (PBS pH 7.4 / n-octanol). It counts as physicochemical. To be noted: PBS/Octanol mix, n = 5. The protocol: The distribution coefficients (LogD7.4) of radiolabelled compounds [^68Ga]Ga-1-4, and [^68Ga]Ga-Cmp ex-2 were assayed by measuring radioactivity distribution in the aqueous phase (phosphate buffer pH7.4) and the organic phase (n-octanol). To determine the distribution coefficient (LogD), Ga-68 radiolabelled compounds were diluted to 20 pmol/mL in PBS (pH 7.4) and an equal volume of n-octanol was added. The mixture was vortexed vigorously for 10 cycles of 1 min at room temperature before being centrifuged for 6 min to separate the two phases. Equal volumes from each phase were aliquoted into individual counting tubes and analysed for 1 min using the Perkin Elmer 2480 Wizard2™ gamma counter (PerkinElmer, Massachusetts, USA). The distribution coefficient was calculated using the following equation [formula]

Data set [2] is described as follows: in vitro. It counts as in vitro ADME, mouse. The protocol: Drug detoxification, drug metabolism and metabolic stability are important determinants of the efficacy of theranostic candidates in clinical settings. To assess metabolic stability, radiolabelled Compounds [^68Ga]Ga-1-4 and comparative example-2 ([^68Ga]Ga-Cmp ex-2) were challenged by incubation in either human serum, mouse liver or kidney homogenates and HEPES buffer as a negative control. Duplicate samples (750-900 pmol/mL) were incubated at 37° C. with pooled human serum, 15% mouse kidney homogenate, 30% mouse liver homogenate or 20 mM HEPES, pH 7.3 (control). Human blood was collected and serum prepared using SSTII advance vacutainer tubes according to the manufacturer's instructions (Becton Dickinson, New Jersey, USA). Mouse kidney and liver homogenates were prepared by washing the tissues in ice-cold HEPES buffer, pH 7.3 and placing them in pre-chilled tubes containing HEPES buffer and 2.38 mm metal beads (Mo-Bio Laboratories, Hilden, Germany). Tissues were homogenised using the PowerLyzer24 homogeniser (Qiagen, Hilden, Germany) according to the manufacturer's instructions. Ga-68 radiolabelled peptides were incubated with the various lysates at 37° C. and samples were collected at 15, 30, 60 and 90 min. Reactions were terminated by addition of an equal volume of acetonitrile and centrifugation for 2 min at 15,000 rpm. Supernatants were diluted in water before being analysed by HPLC using a Kinetex C18 XB column (5 μm 4.6×150 mm), eluted at 1.5 mL/min of gradient 20-60% MeCN in water containing 0.1% formic acid over 7 min.

Data set [3] concerns A431 CCK2R cells. Further details: species or system BALB/c nu/nu mice. To be noted: mouse, in vivo, iv. The protocol:
The diagnostic efficacy of Compounds [^68Ga]Ga-1-4 and [^68Ga]Ga-Cmp ex-2 was assessed using static small animal PET imaging and quantifying biodistribution studies. Female BALB/c nu/nu mice (age 8-10 weeks) were inoculated subcutaneously on the right flank with 3×10^6 A431 CCK2R cells in PBS:Matrigel (1:1). Mice were weighed and tumours measured twice weekly using electronic callipers with tumour volume (mm^3) calculated as length×width×height×π/6. Mice were assigned to imaging and/or biodistribution groups (tumour volumes: 50-500 mm^3). The respective Ga-68 labelled tracer (4-5 MBq, 100 μL, 13.7-14.2 pmoles) was mixed with vehicle solution (75 μL, DMSO:Tween 80:water, 2:2:6 v/v/v) and then administered to six mice intravenously via tail vein injection. Three mice were euthanised for biodistribution 1 h post injection and selected tissues were excised, weighed and counted using a Capintec (Captus 4000e) gamma counter. Three mice were anaesthetised using 1.5% isoflurane and imaged at 1 and 2 h with a G8 Small Animal PET/CT scanner (Perkin Elmer/Sofie Biosciences). A 10 min static PET scan was acquired, followed immediately by a CT scan. PET images were acquired using the G8 acquisition engine software and reconstructed using a 3D maximal likelihood and expectation maximization (ML-EM) algorithm. PET images were analysed using VivoQuant software, version 3.0 (inviCRO Imaging Services and Software) to quantify maximum standardised uptake value in regions of interest (SUVmax). After imaging the 2 h time point the mice were harvested for biodistribution analysis as above.
For blocking CCK2R binding a solution of N-[(3R)-2,3-Dihydro-1-[2-(2-methylphenyl)-2-oxoethyl]-2-oxo-5-phenyl-1H-1,4-benzodiazepin-3-yl]-N′-(3-methylphenyl)-urea (YM022; Sigma Aldrich) was used. […]

SMILES strings stand for the structures. Square brackets hold non-standard residues; d marks the D form. Peptide text beside a SMILES is read from it. * marks the point of attachment. DOTA = O=C(O)CN1CCN(CC(=O)O)CCN(CC(=O)*)CCN(CC(=O)O)CC1; NMe1Nal = CN[C@@H](Cc1cccc2ccccc12)C(=O)O; NMeNle = CCCC[C@H](NC)C(=O)O; Sar = CNCC(=O)O

For `CCCC[C@@H](C(=O)N[C@@H](CC(=O)O)C(=O)N(C)[C@@H](Cc1cccc2ccccc12)C(N)=O)N(C)C(=O)[C@H](Cc1c[nH]c2ccccc12)NC(=O)CN(C)C(=O)[C@H](Cc1ccc(O)cc1)NC(=O)[C@H](C)NC(=O)[C@@H](CCC(=O)O)NC(=O)[C@@H](CCC(=O)O)NC(=O)[C@@H](CCC(=O)O)NC(=O)[C@@H](CCC(=O)O)NC(=O)[C@@H](CCC(=O)O)NC(=O)[C@@H](CCC(=O)O)NC(=O)CN1CCN(CC(=O)O)CCN(CC(=O)O)CCN(CC(=O)O)CC1` [[^68Ga]Ga-Cmp ex-2, metal not drawn, reference compound] ({DOTA}-[dE][dE][dE][dE][dE][dE]AY[Sar]W[NMeNle]D[NMe1Nal]-NH2), in data set [1], the LogD7.4 is −2.97 ± 0.13. In data set [2], the “metabolism in kidney homogenates” value is on record as “no observable metabolites detected” and the “metabolism in liver homogenates” value is recorded as “no observable metabolites detected”. In data set [3], the “renal / kidney uptake” value is reported as “highest renal uptake” and the tumour uptake entry is given as “best tumour uptake”.

For `CCCC[C@@H](C(=O)N[C@@H](CC(=O)O)C(=O)N(C)[C@@H](Cc1cccc2ccccc12)C(N)=O)N(C)C(=O)[C@H](Cc1c[nH]c2ccccc12)NC(=O)CN(C)C(=O)[C@H](Cc1ccc(O)cc1)NC(=O)[C@H](C)NC(=O)[C@@H](CCC(=O)O)NC(=O)[C@@H](CCC(=O)O)NC(=O)[C@@H](CCC(=O)O)NC(=O)[C@@H](C)NC(=O)[C@@H](CCC(=O)O)NC(=O)[C@@H](CCC(=O)O)NC(=O)CN1CCN(CC(=O)O)CCN(CC(=O)O)CCN(CC(=O)O)CC1` [[^68Ga]Ga-4, metal not drawn] ({DOTA}-[dE][dE][dA][dE][dE][dE]AY[Sar]W[NMeNle]D[NMe1Nal]-NH2), the LogD7.4 in data set [1] is recorded as −2.59 ± 0.02. Further, in data set [2], the “metabolism in kidney homogenates” value is “no observable metabolites detected” and the “metabolism in liver homogenates” value is reported as “no observable metabolites detected”. In addition, the “tumour to kidney ratio” value in data set [3] was “best tumour to kidney ratio”.

The values above are taken from patent US20260077071A1, “Targeted Delivery of Theranostic Agents” (Peter MacCallum Cancer Institute, priority 2022, published 2026).
